From patent publication EP1500662A2 (CORNELL RESEARCH FOUNDATION, INC., dated 2005)

Legend:
Assay in all cases: cell-based or functional assay
[1] = molecular target: envelope glycoprotein of HIV-1 CM.235 (HIV-1 CM.235)
[2] = molecular target: envelope glycoprotein of HIV-1 Case C 7/86 (HIV-1 Case C 7/86)
[3] = molecular target: envelope glycoprotein of HIV-1 JFRL (HIV-1 JFRL)
[4] = molecular target: envelope glycoprotein of HIV-1 UG270 (HIV-1 UG270)
[5] = molecular target: envelope glycoprotein of HIV-1 BZ162 (HIV-1 BZ162)
[6] = molecular target: envelope glycoprotein of HIV-1 DJ258 (HIV-1 DJ258)
[7] = molecular target: envelope glycoprotein of HIV-1 94ZW103 (HIV-1 94ZW103)
[8] = molecular target: envelope glycoprotein of HIV-1 NL4-3 (HIV-1 NL4-3)

| Binder | IC50 (nM), Human PBMC Infectivity Assays [1] | IC50 (nM), Human PBMC Infectivity Assays [2] | IC50 (nM), Human PBMC Infectivity Assays [3] | IC50 (nM), Human PBMC Infectivity Assays [4] | IC50 (nM), Human PBMC Infectivity Assays [5] | IC50 (nM), Human PBMC Infectivity Assays [6] | IC50 (nM), Human PBMC Infectivity Assays [7] | IC50 (nM), Human PBMC Infectivity Assays [8] |
| --- | --- | --- | --- | --- | --- | --- | --- | --- |
| C52F peptide (peptide) peptide: NHTTWMEWDREINNYTSLIHSLIEESQNLQEKNEQELLELDKWASLWNWFNIKIK | 11 nM | 49 nM | 5 nM | 68 nM | 2 nM | 9 nM | 4 nM | 23 nM |
| C52L peptide (peptide) peptide: NHTTWMEWDREINNYTSLIHSLFEESQNLQEKAEQELFELDKWASLWNWFNIKIK |  | 17 nM | 6 nM | 61 nM | 3 nM | 11 nM | 3 nM | 20 nM |
